{"source": "patent US20230374157A1", "binders": {"B1": {"name": "SI-1C4 (duligotuzumab), 2-in-1 bispecific antibody against EGFR and HER3 (bispecific antibody, from a related filing, V domains shown)", "VH": "EVQLVESGGGLVQPGGSLRLSCAASGFTLSGDWIHWVRQAPGKGLEWVGEISAAGGYTDYADSVKGRFTISADTSKNTAYLQMNSLRAEDTAVYYCARESRVSFEAAMDYWGQGTLVTVSS", "VL": "DIQMTQSPSSLSASVGDRVTITCRASQNIATDVAWYQQKPGKAPKLLIYSASFLYSGVPSRFSGSGSGTDFTLTISSLQPEDFATYYCQQSEPEPYTFGQGTKVEIKR"}}, "key": {"[1]": {"biological_target": "His-tagged human HER3 extracellular domain (Acro ER3-H5223) (human) (UniProt P21860)", "assay": "BLI, antibody on AHC tips, monomeric HER3 ECD in solution, 1:1 fit"}, "[2]": {"biological_target": "His-tagged human EGFR extracellular domain (expressed and purified in-house) (human) (UniProt P00533)", "assay": "BLI, antibody on AHC tips, monomeric EGFR ECD in solution, 1:1 fit"}}}
{"binder": "B1", "values": [{"measurement": "Kd", "setting": "[1]", "result": 4.29, "unit": "nM"}, {"measurement": "koff", "setting": "[1]", "result": 0.000877, "unit": "s⁻¹"}, {"measurement": "kon", "setting": "[1]", "result": 205000, "unit": "M⁻¹ s⁻¹"}, {"measurement": "Kd", "setting": "[2]", "result": 14.6, "unit": "nM"}, {"measurement": "koff", "setting": "[2]", "result": 0.00438, "unit": "s⁻¹"}, {"measurement": "kon", "setting": "[2]", "result": 300000, "unit": "M⁻¹ s⁻¹"}]}
